Source: article PMC12147174, “PEX1^G843D remains functional in peroxisome biogenesis but is rapidly degraded by the proteasome” (The Journal of Biological Chemistry, 2025)

Columns and labels:
[1] = molecular target: T1, ScPex1^WT (Pex1-FLAG), Saccharomyces cerevisiae (Saccharomyces cerevisiae, UniProt P24004 1-1043); assay: SEC; coexpressed complex purified by Ni-NTA and anti-FLAG resin, equal concentrations of FLAG eluate loaded on Superose 6 in GF buffer (50-60 mM Hepes pH 7.6, 50 mM NaCl, 50 mM KCl, 5% glycerol, 10 mM MgCl2, 1 mM ATP); fractions by SDS-PAGE and Coomassie; details: both partners purified
T1 construct: Pex1, Saccharomyces cerevisiae; Expressed from pETDuet; Forms a heterohexamer with Pex6; also called yeast Pex1; source: E. coli BL21, coexpressed with His-Pex6, purified (Ni-NTA, anti-FLAG M2 agarose, Superose 6)
T1 sequence (looked up): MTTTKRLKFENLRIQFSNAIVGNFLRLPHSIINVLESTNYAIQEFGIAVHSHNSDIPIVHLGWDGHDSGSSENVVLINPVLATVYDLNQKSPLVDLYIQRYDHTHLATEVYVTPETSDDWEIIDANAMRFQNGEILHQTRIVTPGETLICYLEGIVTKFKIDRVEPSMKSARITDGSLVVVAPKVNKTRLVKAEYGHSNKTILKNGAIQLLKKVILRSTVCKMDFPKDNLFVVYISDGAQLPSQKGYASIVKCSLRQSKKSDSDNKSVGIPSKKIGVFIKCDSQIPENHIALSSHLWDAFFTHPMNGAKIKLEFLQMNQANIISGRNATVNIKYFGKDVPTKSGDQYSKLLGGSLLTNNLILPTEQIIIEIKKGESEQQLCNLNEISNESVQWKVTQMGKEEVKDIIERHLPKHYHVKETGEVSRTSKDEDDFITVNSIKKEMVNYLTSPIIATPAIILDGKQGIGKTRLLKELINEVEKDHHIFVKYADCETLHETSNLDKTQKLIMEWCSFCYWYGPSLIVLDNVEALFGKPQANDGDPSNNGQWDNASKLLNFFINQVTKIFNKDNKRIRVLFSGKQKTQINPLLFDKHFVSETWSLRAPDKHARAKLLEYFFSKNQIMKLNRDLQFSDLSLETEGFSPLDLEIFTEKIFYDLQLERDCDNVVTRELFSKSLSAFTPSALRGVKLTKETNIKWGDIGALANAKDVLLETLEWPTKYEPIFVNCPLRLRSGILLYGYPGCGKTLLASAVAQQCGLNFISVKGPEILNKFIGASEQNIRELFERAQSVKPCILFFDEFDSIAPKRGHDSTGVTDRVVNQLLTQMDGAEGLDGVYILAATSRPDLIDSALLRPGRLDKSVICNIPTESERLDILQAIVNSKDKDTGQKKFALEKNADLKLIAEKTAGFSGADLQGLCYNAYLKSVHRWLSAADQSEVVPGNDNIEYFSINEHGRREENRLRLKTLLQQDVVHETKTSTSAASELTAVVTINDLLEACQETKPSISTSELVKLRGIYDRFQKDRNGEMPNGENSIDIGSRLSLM

[2] = molecular target: T2, ScPex1^G700D (Pex1-FLAG G700D), Saccharomyces cerevisiae (Saccharomyces cerevisiae, UniProt P24004 1-1043, G700D); assay: as above; details: both partners purified
T2 construct: Pex1, Saccharomyces cerevisiae, with G700D (homologous to human G843D); source: E. coli BL21, coexpressed with His-Pex6, purified (Ni-NTA, anti-FLAG M2 agarose, Superose 6)
T2 sequence (looked up): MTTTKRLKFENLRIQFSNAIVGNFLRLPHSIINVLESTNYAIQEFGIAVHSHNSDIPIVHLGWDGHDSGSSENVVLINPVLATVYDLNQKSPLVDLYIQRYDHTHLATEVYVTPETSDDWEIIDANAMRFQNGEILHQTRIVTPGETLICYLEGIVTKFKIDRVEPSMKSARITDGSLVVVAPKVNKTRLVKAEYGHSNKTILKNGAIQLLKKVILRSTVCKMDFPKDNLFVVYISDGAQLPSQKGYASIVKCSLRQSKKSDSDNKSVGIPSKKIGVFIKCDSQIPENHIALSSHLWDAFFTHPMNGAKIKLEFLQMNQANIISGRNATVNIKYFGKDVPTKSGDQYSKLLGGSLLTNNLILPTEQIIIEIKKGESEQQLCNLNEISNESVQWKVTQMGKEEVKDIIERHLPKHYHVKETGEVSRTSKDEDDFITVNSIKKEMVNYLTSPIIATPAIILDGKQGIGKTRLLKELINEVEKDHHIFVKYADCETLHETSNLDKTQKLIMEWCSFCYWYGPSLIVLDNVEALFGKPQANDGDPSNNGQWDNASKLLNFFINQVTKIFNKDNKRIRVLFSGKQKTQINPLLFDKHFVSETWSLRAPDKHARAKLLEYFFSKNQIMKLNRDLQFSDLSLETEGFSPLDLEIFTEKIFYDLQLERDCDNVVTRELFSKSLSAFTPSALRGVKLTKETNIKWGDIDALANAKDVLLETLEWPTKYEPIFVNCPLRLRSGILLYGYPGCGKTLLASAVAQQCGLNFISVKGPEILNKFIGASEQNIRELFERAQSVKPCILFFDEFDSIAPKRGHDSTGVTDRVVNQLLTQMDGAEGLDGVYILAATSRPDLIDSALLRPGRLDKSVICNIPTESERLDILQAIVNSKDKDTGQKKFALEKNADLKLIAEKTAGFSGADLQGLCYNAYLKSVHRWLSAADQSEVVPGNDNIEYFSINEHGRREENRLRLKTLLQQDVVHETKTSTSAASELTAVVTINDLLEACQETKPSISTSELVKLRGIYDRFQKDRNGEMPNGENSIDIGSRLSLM

binding result [1]: binds
binding result [2]: binds
B1: ScPex6 (His-Pex6), Saccharomyces cerevisiae (natural protein)
chain: MKASLTFSLSGIYAPCSISRDIYLEYGDKKAECLYGTIRLPQYGPGCTPGKIVHCVLDDSLPFCSIVVPSKLFGFMPTQPTMDFCYFEPILDNVVPVLDSVTFLINEQLYSKLMDLPQEMQQIQFLHYKYNINSMETVVHSRDILTSGLCQILNCSPFPQGLVDFTETQLILVNDTEQKLSALKYANEDEEYALPKIGTNSALSIDLESLPCTISRDLLRPAPHINDDNSIYAFTDAETLLRLDVTSGSFITVSNMGCVRLVKLFVLLLPNGFKKRTIYAPPKIIASFPDCSVVTISKSNIGHTDIPIANQVFISRVGGWLQSQKCFQNIILTTLKKFFSESKRILCQNDLIPIAFDSSMADLNIAEENDESDDEDELGQYYKNDSLVWFFVTSAELDCFSKDNSHFIIDPNRTKLITTNITNRRPLPLSRSNLQRYYGFAETFYYDLHIFPYVRQLVNILETSFNCSQRGITLNASVLLHSTTNNVGKATMVRFASKYLGIHLLEIDCLSLTSNSRQLDSTSKIIGYIRAKCENVLPYASPAVIFLAHLDSILLDVNANQDPEAIKLQKSINFEMSKLLDDFTFKFPGTTFVGSVNNIDNVPSSFRSHMRFEILVPVPSEAQRLRIFQWYLSSHELNRDVQQKVPVSYMDNISFSSLSSYSAGLTPLDIKSIVETARMTATARFYQESKKCGWLPQSILITQEDLSKATSKARNEFSVSIGAPQIPNVTWDDIGGIDFVKGEILDTIDMPLKHPELFTSGMKKRSGILFYGPPGTGKTLMAKAIATNFSLNFFSVKGPELLNMYIGESEANVRRVFQKAREAKPCVIFFDEIDSVAPKRGNQGDSGGVMDRIVSQLLAELDGMSTDADGVFVIGATNRPDLLDEALLRPGRFDKLLYLGIPDTDTKQLNILEALTRKFVLDNDVKLIELAKLCPFNYTGADFYALCSDAMLNAMSRIARMVEKKVSQHNELTGENISTRRWFDKIATKEDTKVVVKMEDFLKAQEQLTPSVSRAELNHYEAVRANFEGA
notes: Pex6, Saccharomyces cerevisiae; Expressed from pCOLADuet; source: E. coli BL21, coexpressed with Pex1-FLAG, purified (Ni-NTA, anti-FLAG M2 agarose, Superose 6)
